In patent US6677124:

Assays:
[1] = molecular target: monoclonal antibody BC203; assay: competitive radioimmunoassay: unlabeled hBNP against 125I-labeled Tyr0-hBNP on BC203 (ascites BC203A diluted 42,000-fold), PEG precipitation
[2] = molecular target: human brain natriuretic peptide (hBNP) (human); assay: Scatchard plot from the hBNP standard curve of the radioimmunoassay
human brain natriuretic peptide (hBNP) (human), sequence (peptide, as listed by the source): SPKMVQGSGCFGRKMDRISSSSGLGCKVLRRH

human brain natriuretic peptide (hBNP), sequence (peptide): as the sequence (peptide, as listed by the source) above

90% inhibitory concentration [1] [ng/mL]	IC50 [1] [µg/mL]	Ka [2] [M⁻¹]	Substance
1.3	0.0118		human brain natriuretic peptide (hBNP)
		1.3e+09	monoclonal antibody BC203
